The target of assay [1] is T1, human GFRα1 expressed with only a C-terminal human Fc tag (human).
T1 construct: also called hGFRα1-hFc
Nature of the assay: BLI Octet, antigen captured on anti-hFc tips. As for the experimental part: (§1) The ability of anti-GFRα3 antibodies to bind to GDNF-family receptors was assessed using an Octet Red biosensor (Fortebio, Inc.). Antibodies were tested for binding to either human GFRα1 expressed with a C-terminal human Fc tag and a hexahistidine tag (hGFRα1-hFc-6His, R&D Systems #714-GR), human GFRα1 expressed with only a C-terminal human Fc tag (hGFRα1-hFc; SEQ ID: 376), human GFRα2 expressed with a C-terminal human Fc tag and a hexahistidine tag (hGFRα2-hFc-6His, R&D Systems #613-FR), human GFRα3 expressed with a C-terminal human Fc tag (hGFRα3-hFc, SEQ ID:371), or an irrelevant human Fc tagged protein. Antigens were captured onto anti-human Fc sensor tips from 10 ug/mL solutions for 5 minutes. The coated sensor tips were then blocked with a 100 ug/mL solution of irrelevant human Fc antibodies for 5 minutes. Blocked sensor tips were then submerged into wells containing […] of each anti-GFRα3 antibody or buffer alone for 10 minutes. The experiment was performed at 25° C. with a flow rate of 1000 rpm using HBST+BSA buffer (10 mM HEPES, 150 mM NaCl, 3 mM EDTA, 0.05% w/v Surfactant P20, 0.1 mg/mL BSA, pH 7.4). The binding response (measured in units of nm) at each step of the experiment was monitored and recorded.

For assay [2], the target named is T2, human GFRα2 expressed with a C-terminal human Fc tag and a hexahistidine tag (human, UniProt O00451 22-441, limits assumed).
T2 construct: bought protein; also called hGFRα2-hFc-6His; hGFRα2-hFc-6his
T2 sequence (looked up): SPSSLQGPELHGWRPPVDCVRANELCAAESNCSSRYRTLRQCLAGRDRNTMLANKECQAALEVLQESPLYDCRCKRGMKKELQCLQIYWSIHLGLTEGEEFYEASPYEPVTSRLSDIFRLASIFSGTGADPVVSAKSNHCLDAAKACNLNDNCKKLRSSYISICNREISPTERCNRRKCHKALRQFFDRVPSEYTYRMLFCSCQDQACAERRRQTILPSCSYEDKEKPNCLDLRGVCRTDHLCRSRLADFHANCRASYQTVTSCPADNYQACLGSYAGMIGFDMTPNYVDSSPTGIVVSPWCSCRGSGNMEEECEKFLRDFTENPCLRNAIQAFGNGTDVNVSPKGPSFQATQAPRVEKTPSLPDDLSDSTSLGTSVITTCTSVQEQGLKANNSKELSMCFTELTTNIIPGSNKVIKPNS
Nature of the assay: BLI Octet, antigen captured on anti-hFc tips. As for the experimental part: as §1
A general note: In BLI a coated tip is dipped into the sample, and binding shifts an interference pattern.

Assay [3] deals with T3, human GFRα3 expressed with a C-terminal hFc tag (human).
T3 construct: also called hGFRα3-hFc
T3 sequence (chain, as listed by the source limits assumed): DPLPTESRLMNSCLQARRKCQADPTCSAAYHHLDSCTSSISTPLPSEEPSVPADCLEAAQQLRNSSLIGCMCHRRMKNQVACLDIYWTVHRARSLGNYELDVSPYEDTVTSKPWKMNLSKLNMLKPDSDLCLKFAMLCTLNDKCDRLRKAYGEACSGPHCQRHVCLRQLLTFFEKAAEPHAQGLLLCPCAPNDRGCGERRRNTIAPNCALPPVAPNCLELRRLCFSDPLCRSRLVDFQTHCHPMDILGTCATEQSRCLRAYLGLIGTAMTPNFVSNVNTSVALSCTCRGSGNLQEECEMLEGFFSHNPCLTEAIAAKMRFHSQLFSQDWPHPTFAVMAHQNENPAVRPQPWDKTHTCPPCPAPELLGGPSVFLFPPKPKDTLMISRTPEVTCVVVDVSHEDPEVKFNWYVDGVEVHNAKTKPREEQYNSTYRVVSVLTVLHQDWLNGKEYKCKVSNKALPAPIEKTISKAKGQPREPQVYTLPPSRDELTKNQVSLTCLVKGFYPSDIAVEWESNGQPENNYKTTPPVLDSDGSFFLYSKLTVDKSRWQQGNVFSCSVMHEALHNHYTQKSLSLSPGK
Kind of assay: BLI Octet, antigen on anti-hFc tips, 100 ug/mL Ab. As for the experimental part: as §1

The target of assay [4] is T1, human GFRα1 expressed with only a …. Nature of the assay: BLI Octet, antigen on anti-hFc tips, 100 ug/mL Ab. On the procedure: as §1
Target sequence in this assay (chain, as listed by the source limits assumed): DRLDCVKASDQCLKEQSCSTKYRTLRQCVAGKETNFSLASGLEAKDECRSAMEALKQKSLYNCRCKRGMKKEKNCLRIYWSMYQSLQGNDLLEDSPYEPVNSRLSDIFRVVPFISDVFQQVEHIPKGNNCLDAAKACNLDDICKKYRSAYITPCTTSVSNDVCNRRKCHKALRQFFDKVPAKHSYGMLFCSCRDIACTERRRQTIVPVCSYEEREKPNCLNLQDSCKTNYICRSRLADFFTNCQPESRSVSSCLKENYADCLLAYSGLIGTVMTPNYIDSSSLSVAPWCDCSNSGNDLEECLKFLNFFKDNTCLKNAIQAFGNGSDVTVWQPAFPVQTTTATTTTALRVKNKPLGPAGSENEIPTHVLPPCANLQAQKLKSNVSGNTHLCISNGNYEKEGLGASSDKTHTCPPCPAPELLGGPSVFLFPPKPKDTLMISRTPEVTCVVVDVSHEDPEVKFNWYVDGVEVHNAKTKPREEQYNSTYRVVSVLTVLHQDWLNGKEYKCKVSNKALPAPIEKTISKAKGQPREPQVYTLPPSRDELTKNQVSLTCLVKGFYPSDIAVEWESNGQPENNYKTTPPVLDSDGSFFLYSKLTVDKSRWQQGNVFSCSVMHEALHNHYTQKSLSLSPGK
Assay [5] deals with T4, human GFRα1 expressed with a C-terminal human Fc tag and a hexahistidine tag (human, UniProt P56159 25-429, limits assumed).
T4 construct: bought protein; also called hGFRα1-hFc-6His; hGFRα1-hFc-6his
T4 sequence (looked up): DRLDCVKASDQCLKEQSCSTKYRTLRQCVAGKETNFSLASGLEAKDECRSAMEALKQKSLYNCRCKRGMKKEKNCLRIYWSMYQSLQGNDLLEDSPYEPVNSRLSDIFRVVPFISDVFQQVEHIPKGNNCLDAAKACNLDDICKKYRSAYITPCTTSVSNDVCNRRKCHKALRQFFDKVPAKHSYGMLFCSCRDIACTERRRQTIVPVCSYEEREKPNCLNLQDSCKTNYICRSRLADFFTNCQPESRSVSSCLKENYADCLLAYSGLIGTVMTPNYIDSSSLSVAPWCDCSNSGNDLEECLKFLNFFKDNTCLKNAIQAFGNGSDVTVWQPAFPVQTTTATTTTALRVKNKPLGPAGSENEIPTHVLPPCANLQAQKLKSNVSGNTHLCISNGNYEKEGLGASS
Kind of assay: BLI Octet, antigen on anti-hFc tips, 100 ug/mL Ab. On the procedure:
as §1

The target of assay [6] is T2, human GFRα2 expressed with a C-terminal …. Kind of assay: BLI Octet, antigen on anti-hFc tips, 100 ug/mL Ab. On the procedure: as §1
Assay [7] addresses T5, irrelevant human Fc tagged protein.
T5 construct: negative control antigen; also called Irrelevant hFc tagged protein
Nature of the assay: BLI Octet, antigen on anti-hFc tips, 100 ug/mL Ab. As for the experimental part:
as §1

Assay [8] addresses T3, human GFRα3 expressed with a C-terminal …. Kind of assay: blocking ELISA 1, hGFRα3-hFc to coated hARTEMIN-mmH. As for the experimental part: A constant amount of human GFRα3 fused with a C-terminal human Fc tag (hGFRα3-hFc; SEQ ID:371) at 120 pM was pre-mixed with varying amounts of antibodies, ranging from 0 to ˜10 nM in serial dilutions, followed by an 1 hour incubation at room temperature (RT) to allow antibody-hGFRα3-hFc binding to reach equilibrium. The equilibrated sample solutions were then transferred to the hARTEMIN-mmH-coated plate. […] Absorbance was recorded at 450 nm on a Victor X5 plate reader (Perkin Elmer) to determine the amount of free hGFRα3-hFc in the pre-equilibrated hGFRα3-hFc-antibody solutions that was able to bind to the plate coated with hARTEMIN-mmH. IC₅₀ values, defined as the concentration of antibody required to reduce the signal from a constant concentration of hGFRα3-hFc by 50%, were calculated from the data using Prism software from GraphPad. The absorbance measured at the constant amount of 120 pM hGFRα3-hFc in the absence of anti-GFRα3 antibody is defined as 0% blocking and the absorbance with no added hGFRα3-hFc is defined as 100% blocking. The observed absorbance in the wells containing the highest antibody concentration was used to calculate the maximum blocking percent shown in the table.
For orientation: An ELISA detects its analyte on a solid surface through an enzyme-linked reagent.

B1: H4H2292S (antibody, human IgG4, V domains shown)
VH: EVQLVESGGGVVQPGRSLRLSCAASGFTFSSYGMHWVRQAPGKGLEWVSFIWYDGSNKYYADSVKGRFTISRDNSKNTLYLQMNSLTAEDTAVYYCARRGILTGTTAFDIWGQGTMVTVSS
VL: DIQMTQSPSSLSASVGDRVTITCRASQSISSYLNWYQQKPGKAPKLLIYAASSLQSGVPSRFSGSGSGTDFTLTIRSLIPEDFATYYCQQTYNTPFTFGPGTKVEIK
notes: human IgG4 Fc (H4H)
In the case of B1, the binding result in assay [1] and in assay [2] was “no binding (tested: 100 ug/mL)” each time. In addition, the “Bound (nm)” value in assay [3] was 1.04 nm; in assay [4], 0.05 nm; in assay [5], 0.03 nm; in assay [6] it was 0.05 nm; in assay [7], 0.02 nm. The “% max blocking” value in assay [8] was determined as 89%. This molecule also gave an IC50 in assay [8] of 0.723 nM.

B2: H4H2352S (antibody, human IgG4, V domains shown)
VH: EVQLVQSGAEVKKPGASVKVSCKASGYTFTNYGITWVRQAPGQGLEWMGWISAYNGNTGYAQKFQGRVTMTTDTSTSTAYMELRSLRSDDTAVYYCAREDYDFWRAFDIWGQGTMVTVSS
VL: EIVLTQSPGTLSLSPGERATLSCRASQSVSSTYLAWLQQKPGQAPRLLIYGASSRATGIPDRFSGSGSGTDFTLTINRLEPEDFAVYYCQQYAYSPYTFGQGTKLEIK
notes: human IgG4 Fc (H4H); also called H4H2352S-1
Regarding B2, the binding result in assay [1] and in assay [2] was “no binding (tested: 100 ug/mL)” in each case. For the same molecule, the “Bound (nm)” value amounted to 1.25 nm in assay [3]; 0.02 nm in assay [4]; 0.03 nm in assay [5]; 0.04 nm in assay [6]; 0.03 nm in assay [7]. The “% max blocking” value in assay [8] was determined as 51%. In assay [8], the IC50 stood at 0.0658 nM.

One may read the IC50 as the concentration needed to halve the response being measured. Read a low IC50 as inhibition by little substance.

(Values after US20140056903A1 (Regeneron, published 2014).)
